Experiment [1] concerns the target T1, TROP-2-his (UniProt P09758 27-274).
T1 construct: also called antigen TROP-2-his; not shown: his tag
T1 sequence (looked up): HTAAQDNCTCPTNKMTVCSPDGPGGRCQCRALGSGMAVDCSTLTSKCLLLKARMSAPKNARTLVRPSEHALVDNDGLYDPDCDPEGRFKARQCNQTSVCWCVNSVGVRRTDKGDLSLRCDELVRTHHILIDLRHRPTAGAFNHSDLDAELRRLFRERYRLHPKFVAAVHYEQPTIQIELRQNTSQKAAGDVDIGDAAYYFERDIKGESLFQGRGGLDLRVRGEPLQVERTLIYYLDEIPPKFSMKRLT
Briefly: SPR (Biacore), antibody captured on Protein A chip, TROP-2-his flowed over, 1:1 Langmuir fit. An excerpt:
(§1) In this test example, the affinity of the TROP-2 antibody and the TROP-2-ADC compound obtained according to the above examples to TROP-2 is detected by means of capturing antibody.
(§2) Use the Sensor Chip Protein A biosensor chip (Cytiva) to capture the antibody (TROP-2 antibody or TROP-2-ADC compound), then flow through the antigen TROP-2-his on the surface of the chip, and use the Biacore K8 instrument (Cytiva) Real-time detection of reaction signals to obtain association and dissociation curves. After the dissociation of each experiment cycle, the chip was washed and regenerated with regeneration buffer. After the experiment, GE Biacore K8 Evaluation version 3.0 software was used to fit the data with the (1:1) Langmuir model to obtain the affinity value.

Experiment [2] concerns the target T1, TROP-2-his. Briefly: SPR (Biacore), ADC captured on Protein A chip, TROP-2-his flowed over, 1:1 Langmuir fit.
Excerpt: as §1, §2

In experiment [3] the target is T2, human HER3-His antigen (human, UniProt P21860 20-643).
T2 construct: not shown: His tag
Description: SPR (Biacore 8K), antibody captured on Protein A chip, HER3-His at 0.625-40 nM as analyte. The protocol: (§3) The binding ability of naked antibody, HER3-ADC-19, HER3-ADC-20, HER3-ADC-21 to human HER3-His antigen was determined at 7 different concentrations (0.625-40 nM) using protein A biosensor chip.
For orientation: SPR reads the build-up and loss of mass on a sensor chip optically.

Experiment [4] addresses T2, human HER3-His antigen. Briefly: SPR (Biacore 8K), ADC captured on Protein A chip, HER3-His at 0.625-40 nM as analyte. On the procedure: as §3

B1: anti-human TROP-2 monoclonal antibody (anti-hRS7 antibody) (antibody, human IgG1, kappa, V domains shown)
VH: QVQLQQSGSELKKPGASVKVSCKASGYTFTNYGMNWVKQAPGQGLKWMGWINTYTGEPTYTDDFKGRFAFSLDTSVSTAYLQISSLKADDTAVYFCARGGFGSSYWYFDVWGQGSLVTVSS
VL: DIQLTQSPSSLSASVGDRVSITCKASQDVSIAVAWYQQKPGKAPKLLIYSASYRYTGVPDRFSGSGSGTDFTLTISSLQPEDFAVYYCQQHYITPLTFGAGTKVEIKR
notes: also called Naked antibody (anti-TROP-2 monoclonal antibody); TROP-2 antibody
What is called Kd is the equilibrium constant for the complex coming apart. A higher Kd goes with weaker binding. Consider B1, for which the Kd with TROP-2-his [1] was 318 pM.

B2: TROP-2-ADC-19 (antibody, human IgG1, kappa, V domains shown)
VH: QVQLQQSGSELKKPGASVKVSCKASGYTFTNYGMNWVKQAPGQGLKWMGWINTYTGEPTYTDDFKGRFAFSLDTSVSTAYLQISSLKADDTAVYFCARGGFGSSYWYFDVWGQGSLVTVSS
VL: DIQLTQSPSSLSASVGDRVSITCKASQDVSIAVAWYQQKPGKAPKLLIYSASYRYTGVPDRFSGSGSGTDFTLTISSLQPEDFAVYYCQQHYITPLTFGAGTKVEIKR
modifications: drug-linker compound 66 coupled to cysteines of the reduced interchain disulfide bonds; positions not given; drug-linker compound 66 (maleimide linker, exatecan derivative) coupled to cysteines of the reduced interchain disulfide bonds; positions not given; DAR 4.65 for the whole antibody
On to B2, for which, in the experiment with TROP-2-his [2], the affinity, expressed as Kd, was 319 pM.

B3: TROP-2-ADC-4 (antibody, human IgG1, kappa, V domains shown)
VH: QVQLQQSGSELKKPGASVKVSCKASGYTFTNYGMNWVKQAPGQGLKWMGWINTYTGEPTYTDDFKGRFAFSLDTSVSTAYLQISSLKADDTAVYFCARGGFGSSYWYFDVWGQGSLVTVSS
VL: DIQLTQSPSSLSASVGDRVSITCKASQDVSIAVAWYQQKPGKAPKLLIYSASYRYTGVPDRFSGSGSGTDFTLTISSLQPEDFAVYYCQQHYITPLTFGAGTKVEIKR
modifications: drug-linker compound 51 coupled to cysteines of the reduced interchain disulfide bonds; positions not given; drug-linker compound 51 (maleimide linker, exatecan derivative) coupled to cysteines of the reduced interchain disulfide bonds; positions not given; DAR 8.49 for the whole antibody
As for B3, in the experiment with TROP-2-his [2], binding was put at a Kd of 293 pM.

B4: TROP-2-ADC-23 (antibody, human IgG1, kappa, V domains shown)
VH: QVQLQQSGSELKKPGASVKVSCKASGYTFTNYGMNWVKQAPGQGLKWMGWINTYTGEPTYTDDFKGRFAFSLDTSVSTAYLQISSLKADDTAVYFCARGGFGSSYWYFDVWGQGSLVTVSS
VL: DIQLTQSPSSLSASVGDRVSITCKASQDVSIAVAWYQQKPGKAPKLLIYSASYRYTGVPDRFSGSGSGTDFTLTISSLQPEDFAVYYCQQHYITPLTFGAGTKVEIKR
modifications: drug-linker compound 70 coupled to cysteines of the reduced interchain disulfide bonds; positions not given; drug-linker compound 70 (maleimide linker, exatecan derivative) coupled to cysteines of the reduced interchain disulfide bonds; positions not given; DAR 6.42 for the whole antibody
In turn, B4 yielded a dissociation constant (Kd) with TROP-2-his [2] of 262 pM.

B5: TROP-2-ADC-21 (antibody, human IgG1, kappa, V domains shown)
VH: QVQLQQSGSELKKPGASVKVSCKASGYTFTNYGMNWVKQAPGQGLKWMGWINTYTGEPTYTDDFKGRFAFSLDTSVSTAYLQISSLKADDTAVYFCARGGFGSSYWYFDVWGQGSLVTVSS
VL: DIQLTQSPSSLSASVGDRVSITCKASQDVSIAVAWYQQKPGKAPKLLIYSASYRYTGVPDRFSGSGSGTDFTLTISSLQPEDFAVYYCQQHYITPLTFGAGTKVEIKR
modifications: drug-linker compound 68 coupled to cysteines of the reduced interchain disulfide bonds; positions not given; drug-linker compound 68 (maleimide linker, exatecan derivative) coupled to cysteines of the reduced interchain disulfide bonds; positions not given; DAR 4.78 for the whole antibody
Molecule B5 came in with a Kd in the experiment with TROP-2-his [2] of 275 pM.

B6: TROP-2-ADC-3 (antibody, human IgG1, kappa, V domains shown)
VH: QVQLQQSGSELKKPGASVKVSCKASGYTFTNYGMNWVKQAPGQGLKWMGWINTYTGEPTYTDDFKGRFAFSLDTSVSTAYLQISSLKADDTAVYFCARGGFGSSYWYFDVWGQGSLVTVSS
VL: DIQLTQSPSSLSASVGDRVSITCKASQDVSIAVAWYQQKPGKAPKLLIYSASYRYTGVPDRFSGSGSGTDFTLTISSLQPEDFAVYYCQQHYITPLTFGAGTKVEIKR
modifications: drug-linker compound 50 coupled to cysteines of the reduced interchain disulfide bonds; positions not given; drug-linker compound 50 (maleimide linker, exatecan derivative) coupled to cysteines of the reduced interchain disulfide bonds; positions not given; DAR 14.74 for the whole antibody
B6 returned a Kd with TROP-2-his [2] of 276 pM.

B7: anti-human HER3 monoclonal antibody (antibody, human IgG1, kappa, V domains shown)
VH: QVQLQQWGAGLLKPSETLSLTCAVYGGSFSGYYWSWIRQPPGKGLEWIGEINHSGSTNYNPSLKSRVTISVETSKNQFSLKLSSVTAADTAVYYCARDKWTWYFDLWGRGTLVTVSS
VL: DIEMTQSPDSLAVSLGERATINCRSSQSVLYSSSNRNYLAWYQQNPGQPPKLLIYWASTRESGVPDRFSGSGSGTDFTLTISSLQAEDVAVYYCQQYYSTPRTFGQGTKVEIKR
notes: also called Naked antibody; HER3 antibody
As a reminder, the koff is the first-order rate constant of dissociation. A low value points to a long-lived complex. Usually kon stands for the second-order rate constant of association. A low value points to slow association. B7: in the experiment with human HER3-His antigen [3], the Kd worked out at 1410 pM, the koff worked out at 0.000363 s⁻¹ and the kon worked out at 257000 M⁻¹ s⁻¹.

B8: HER3-ADC-21 (antibody, human IgG1, kappa, V domains shown)
VH: QVQLQQWGAGLLKPSETLSLTCAVYGGSFSGYYWSWIRQPPGKGLEWIGEINHSGSTNYNPSLKSRVTISVETSKNQFSLKLSSVTAADTAVYYCARDKWTWYFDLWGRGTLVTVSS
VL: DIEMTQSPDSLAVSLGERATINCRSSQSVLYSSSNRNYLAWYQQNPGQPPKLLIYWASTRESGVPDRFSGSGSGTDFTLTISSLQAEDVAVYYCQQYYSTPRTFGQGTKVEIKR
modifications: drug-linker compound 68 coupled to cysteines of the reduced interchain disulfide bonds; positions not given; drug-linker compound 68 (maleimide linker, exatecan derivative) coupled to cysteines of the reduced interchain disulfide bonds; positions not given; DAR 8.00 for the whole antibody
With B8, in the experiment with human HER3-His antigen [4], the equilibrium dissociation constant (Kd) was determined as 2080 pM, the koff amounted to 0.000451 s⁻¹ and the kon turned out to be 217000 M⁻¹ s⁻¹.

For the origin of these results see US20250161473A1 (GAN AND LEE PHARMACEUTICALS, published 2025).
